The record followed here is article PMC11401937 (Nature Communications, 2024).

Broadly, the stoichiometry N is a count of units in the complex or per binding partner.

This data set deals with the molecule itself. Kind of data set: cryo-EM structure.

B1: Human Best1 protein purified for cryo-EM (GABA-bound pentamer) (natural protein)
chain: TITYTSQVANARLGSFSRLLLCWRGSIYKLLYGEFLIFLLCYYIIRFIYRLALTEEQQLMFEKLTLYCDSYIQLIPISFVLGFYVTLVVTRWWNQYENLPWPDRLMSLVSGFVEGKDEQGRLLRRTLIRYANLGNVLILRSVSTAVYKRFPSAQHLVQAGFMTPAEHKQLEKLSLPHNMFWVPWVWFANLSMKAWLGGRIRDPILLQSLLNEMNTLRTQCGHLYAYDWISIPLVYTQVVTVAVYSFFLTCLVGRQFLNPAKAYPGHELDLVVPVFTFLQFFFYVGWLKVAEQLINPFGEDDDDFETNWIVDRNLQVSLLAVDEMHQDLPRMEPDMYWNKPEPQPPYTAASAQFRRASFMGSTFNISLNKEEMEFQPNQEDEEDAHAGIIGRFLGLQSHDHHPPRANSRTKLLWPKRESLLHEGLPKNHKAAKQNVRGQEDNKAWKLKAVDAFKSAPLYQRPGYYSAPQTPLSPTPMFFPLEPSAPSKLHSVTGIDTKDKSLKTVSSGAKKSFELLSESDGALMEHPEVSQVRRKTVEFNLTDMPEIPENHLKEPLEQSPTNIHTTLKDHMDPYWALENRDEAHS
Consider B1, for which the “stoichiometry N” value turned out to be 5.
